Experiment [1] addresses human GLP-1 receptor (GLP1R) (human, UniProt P43220 24-463). Briefly: cell-based or functional assay.
Experiment [2] has as its target human Glucagon receptor (GCGR) (human, UniProt P47871 26-477). Briefly: cell-based or functional assay.

Numbered stars: 1 amine (or outer) side, 2 acyl side, 3 side chain; on linkers, the order of the positions; unused ones are H or OH. Square brackets hold non-standard residues; d marks the D form. Side chains are listed from the residue outwards. Ends that are not written are not given here. * marks the point of attachment. C18 diacid = O=C(O)CCCCCCCCCCCCCCCCC(=O)*; C16 diacid = O=C(O)CCCCCCCCCCCCCCC(=O)*; γGlu = O=C(O)[C@H](CCC(=O)[*:2])N[*:1]; Met(O2) = CS(=O)(=O)CC[C@H](N)C(=O)O; αMeD = C[C@](N)(CC(=O)O)C(=O)O; Nle = CCCC[C@H](N)C(=O)O; AEEA = NCCOCCOCC(=O)O; Aib = CC(C)(N)C(=O)O

human Glucagon receptor (GCGR), sequence (P47871 26-477): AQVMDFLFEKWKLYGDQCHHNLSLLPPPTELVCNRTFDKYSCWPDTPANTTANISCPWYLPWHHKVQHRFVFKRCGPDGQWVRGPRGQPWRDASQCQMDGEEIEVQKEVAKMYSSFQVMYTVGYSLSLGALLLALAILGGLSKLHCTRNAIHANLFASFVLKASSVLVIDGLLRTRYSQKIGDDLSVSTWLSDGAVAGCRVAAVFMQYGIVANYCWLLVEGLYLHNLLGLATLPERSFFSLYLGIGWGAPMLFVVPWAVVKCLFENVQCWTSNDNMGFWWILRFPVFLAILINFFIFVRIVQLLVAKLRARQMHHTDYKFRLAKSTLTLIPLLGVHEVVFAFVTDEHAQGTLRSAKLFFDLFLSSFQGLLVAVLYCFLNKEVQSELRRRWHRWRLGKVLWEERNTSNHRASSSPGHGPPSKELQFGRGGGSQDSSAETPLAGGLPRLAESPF

B1: TP735 (peptide)
peptide: H[Aib]QGTFTSDYSKYLDARAAK([AEEA-AEEA-γGlu-C18 diacid])DFVQWL[Met(O2)][αMeD]T-OH
modifications: N-terminus assumed
SMILES: CC(C)C[C@H](NC(=O)[C@H](Cc1ccc(O)cc1)NC(=O)[C@H](CCCCN)NC(=O)[C@H](CO)NC(=O)[C@H](Cc1ccc(O)cc1)NC(=O)[C@H](CC(=O)O)NC(=O)[C@H](CO)NC(=O)[C@@H](NC(=O)[C@H](Cc1ccccc1)NC(=O)[C@@H](NC(=O)CNC(=O)[C@H](CCC(N)=O)NC(=O)C(C)(C)NC(=O)[C@@H](N)Cc1c[nH]cn1)[C@@H](C)O)[C@@H](C)O)C(=O)N[C@@H](CC(=O)O)C(=O)N[C@@H](C)C(=O)N[C@@H](CCCNC(=N)N)C(=O)N[C@@H](C)C(=O)N[C@@H](C)C(=O)N[C@@H](CCCCNC(=O)COCCOCCNC(=O)COCCOCCNC(=O)CC[C@H](NC(=O)CCCCCCCCCCCCCCCCC(=O)O)C(=O)O)C(=O)N[C@@H](CC(=O)O)C(=O)N[C@@H](Cc1ccccc1)C(=O)N[C@H](C(=O)N[C@@H](CCC(N)=O)C(=O)N[C@@H](Cc1c[nH]c2ccccc12)C(=O)N[C@@H](CC(C)C)C(=O)N[C@@H](CCS(C)(=O)=O)C(=O)N[C@@](C)(CC(=O)O)C(=O)N[C@H](C(=O)O)[C@@H](C)O)C(C)C
On to B1, for which the “GLP1R EC50 human” value in experiment [1] was 0.648 nM. Moreover, the “GCGR EC50 human” value in experiment [2] is 0.895 nM.

B2: TP811 (peptide)
peptide: H[Aib]QGTFTSDYSKYLD[Aib]RAAQDFVK([AEEA-AEEA-γGlu-C16 diacid])WL[Met(O2)]DT-NH2
modifications: N-terminus assumed
SMILES: CC(C)C[C@H](NC(=O)[C@H](Cc1c[nH]c2ccccc12)NC(=O)[C@H](CCCCNC(=O)COCCOCCNC(=O)COCCOCCNC(=O)CC[C@H](NC(=O)CCCCCCCCCCCCCCC(=O)O)C(=O)O)NC(=O)[C@@H](NC(=O)[C@H](Cc1ccccc1)NC(=O)[C@H](CC(=O)O)NC(=O)[C@H](CCC(N)=O)NC(=O)[C@H](C)NC(=O)[C@H](C)NC(=O)[C@H](CCCNC(=N)N)NC(=O)C(C)(C)NC(=O)[C@H](CC(=O)O)NC(=O)[C@H](CC(C)C)NC(=O)[C@H](Cc1ccc(O)cc1)NC(=O)[C@H](CCCCN)NC(=O)[C@H](CO)NC(=O)[C@H](Cc1ccc(O)cc1)NC(=O)[C@H](CC(=O)O)NC(=O)[C@H](CO)NC(=O)[C@@H](NC(=O)[C@H](Cc1ccccc1)NC(=O)[C@@H](NC(=O)CNC(=O)[C@H](CCC(N)=O)NC(=O)C(C)(C)NC(=O)[C@@H](N)Cc1c[nH]cn1)[C@@H](C)O)[C@@H](C)O)C(C)C)C(=O)N[C@@H](CCS(C)(=O)=O)C(=O)N[C@@H](CC(=O)O)C(=O)N[C@H](C(N)=O)[C@@H](C)O
On to B2, for which, in experiment [1], the “GLP1R EC50 human” value was found to be 0.26 nM. For the same molecule, in experiment [2], the “GCGR EC50 human” value stood at 0.21 nM.

B3: TP705 (peptide)
peptide: H[Aib]QGTFTSDYSKYLDARAAK([AEEA-AEEA-γGlu-C18 diacid])DFVEWL[Met(O2)]KT-NH2
modifications: N-terminus assumed
SMILES: CC(C)C[C@H](NC(=O)[C@H](Cc1ccc(O)cc1)NC(=O)[C@H](CCCCN)NC(=O)[C@H](CO)NC(=O)[C@H](Cc1ccc(O)cc1)NC(=O)[C@H](CC(=O)O)NC(=O)[C@H](CO)NC(=O)[C@@H](NC(=O)[C@H](Cc1ccccc1)NC(=O)[C@@H](NC(=O)CNC(=O)[C@H](CCC(N)=O)NC(=O)C(C)(C)NC(=O)[C@@H](N)Cc1c[nH]cn1)[C@@H](C)O)[C@@H](C)O)C(=O)N[C@@H](CC(=O)O)C(=O)N[C@@H](C)C(=O)N[C@@H](CCCNC(=N)N)C(=O)N[C@@H](C)C(=O)N[C@@H](C)C(=O)N[C@@H](CCCCNC(=O)COCCOCCNC(=O)COCCOCCNC(=O)CC[C@H](NC(=O)CCCCCCCCCCCCCCCCC(=O)O)C(=O)O)C(=O)N[C@@H](CC(=O)O)C(=O)N[C@@H](Cc1ccccc1)C(=O)N[C@H](C(=O)N[C@@H](CCC(=O)O)C(=O)N[C@@H](Cc1c[nH]c2ccccc12)C(=O)N[C@@H](CC(C)C)C(=O)N[C@@H](CCS(C)(=O)=O)C(=O)N[C@@H](CCCCN)C(=O)N[C@H](C(N)=O)[C@@H](C)O)C(C)C
Turning to B3, the “GLP1R EC50 human” value in experiment [1] came to 0.41 nM. The “GCGR EC50 human” value in experiment [2] was determined as 1.48 nM.

B4: TP737 (peptide)
peptide: H[Aib]QGTFTSDYSKYLD[Aib]RAAQDFVK([AEEA-AEEA-γGlu-C18 diacid])WL[Met(O2)]DT-OH
modifications: N-terminus assumed
SMILES: CC(C)C[C@H](NC(=O)[C@H](Cc1c[nH]c2ccccc12)NC(=O)[C@H](CCCCNC(=O)COCCOCCNC(=O)COCCOCCNC(=O)CC[C@H](NC(=O)CCCCCCCCCCCCCCCCC(=O)O)C(=O)O)NC(=O)[C@@H](NC(=O)[C@H](Cc1ccccc1)NC(=O)[C@H](CC(=O)O)NC(=O)[C@H](CCC(N)=O)NC(=O)[C@H](C)NC(=O)[C@H](C)NC(=O)[C@H](CCCNC(=N)N)NC(=O)C(C)(C)NC(=O)[C@H](CC(=O)O)NC(=O)[C@H](CC(C)C)NC(=O)[C@H](Cc1ccc(O)cc1)NC(=O)[C@H](CCCCN)NC(=O)[C@H](CO)NC(=O)[C@H](Cc1ccc(O)cc1)NC(=O)[C@H](CC(=O)O)NC(=O)[C@H](CO)NC(=O)[C@@H](NC(=O)[C@H](Cc1ccccc1)NC(=O)[C@@H](NC(=O)CNC(=O)[C@H](CCC(N)=O)NC(=O)C(C)(C)NC(=O)[C@@H](N)Cc1c[nH]cn1)[C@@H](C)O)[C@@H](C)O)C(C)C)C(=O)N[C@@H](CCS(C)(=O)=O)C(=O)N[C@@H](CC(=O)O)C(=O)N[C@H](C(=O)O)[C@@H](C)O
Consider B4, for which the “GLP1R EC50 human” value in experiment [1] is 2.67 nM. In experiment [2], the “GCGR EC50 human” value is 1.56 nM.

B5: TP704 (peptide)
peptide: H[Aib]QGTFTSDYSKYLDARAAK([AEEA-AEEA-γGlu-C18 diacid])EFVQWL[Met(O2)]DT-NH2
modifications: N-terminus assumed
SMILES: CC(C)C[C@H](NC(=O)[C@H](Cc1ccc(O)cc1)NC(=O)[C@H](CCCCN)NC(=O)[C@H](CO)NC(=O)[C@H](Cc1ccc(O)cc1)NC(=O)[C@H](CC(=O)O)NC(=O)[C@H](CO)NC(=O)[C@@H](NC(=O)[C@H](Cc1ccccc1)NC(=O)[C@@H](NC(=O)CNC(=O)[C@H](CCC(N)=O)NC(=O)C(C)(C)NC(=O)[C@@H](N)Cc1c[nH]cn1)[C@@H](C)O)[C@@H](C)O)C(=O)N[C@@H](CC(=O)O)C(=O)N[C@@H](C)C(=O)N[C@@H](CCCNC(=N)N)C(=O)N[C@@H](C)C(=O)N[C@@H](C)C(=O)N[C@@H](CCCCNC(=O)COCCOCCNC(=O)COCCOCCNC(=O)CC[C@H](NC(=O)CCCCCCCCCCCCCCCCC(=O)O)C(=O)O)C(=O)N[C@@H](CCC(=O)O)C(=O)N[C@@H](Cc1ccccc1)C(=O)N[C@H](C(=O)N[C@@H](CCC(N)=O)C(=O)N[C@@H](Cc1c[nH]c2ccccc12)C(=O)N[C@@H](CC(C)C)C(=O)N[C@@H](CCS(C)(=O)=O)C(=O)N[C@@H](CC(=O)O)C(=O)N[C@H](C(N)=O)[C@@H](C)O)C(C)C
On to B5, for which the “GLP1R EC50 human” value in experiment [1] is 0.37 nM. Moreover, the “GCGR EC50 human” value in experiment [2] stood at 0.27 nM.

B6: TP736 (peptide)
peptide: H[Aib]QGTFTSDYSKYLDARAAK([AEEA-AEEA-γGlu-C18 diacid])DFVQWL[Met(O2)]DT-OH
modifications: N-terminus assumed
SMILES: CC(C)C[C@H](NC(=O)[C@H](Cc1ccc(O)cc1)NC(=O)[C@H](CCCCN)NC(=O)[C@H](CO)NC(=O)[C@H](Cc1ccc(O)cc1)NC(=O)[C@H](CC(=O)O)NC(=O)[C@H](CO)NC(=O)[C@@H](NC(=O)[C@H](Cc1ccccc1)NC(=O)[C@@H](NC(=O)CNC(=O)[C@H](CCC(N)=O)NC(=O)C(C)(C)NC(=O)[C@@H](N)Cc1c[nH]cn1)[C@@H](C)O)[C@@H](C)O)C(=O)N[C@@H](CC(=O)O)C(=O)N[C@@H](C)C(=O)N[C@@H](CCCNC(=N)N)C(=O)N[C@@H](C)C(=O)N[C@@H](C)C(=O)N[C@@H](CCCCNC(=O)COCCOCCNC(=O)COCCOCCNC(=O)CC[C@H](NC(=O)CCCCCCCCCCCCCCCCC(=O)O)C(=O)O)C(=O)N[C@@H](CC(=O)O)C(=O)N[C@@H](Cc1ccccc1)C(=O)N[C@H](C(=O)N[C@@H](CCC(N)=O)C(=O)N[C@@H](Cc1c[nH]c2ccccc12)C(=O)N[C@@H](CC(C)C)C(=O)N[C@@H](CCS(C)(=O)=O)C(=O)N[C@@H](CC(=O)O)C(=O)N[C@H](C(=O)O)[C@@H](C)O)C(C)C
As to B6, the “GLP1R EC50 human” value in experiment [1] is 1.15 nM. Further, in experiment [2], the “GCGR EC50 human” value is 3.19 nM.

B7: TP588 (peptide)
peptide: H[Aib]QGTFTSDYSKYLD[Aib]RAAK([AEEA-AEEA-γGlu-C20‑OH])DFVQWL[Met(O2)][αMeD]T-NH2
In the case of B7, the “GLP1R EC50 human” value in experiment [1] was 2.92 nM. In addition, the “GCGR EC50 human” value in experiment [2] worked out at 2.67 nM.

B8: TP712 (peptide)
peptide: H[Aib]QGTFTSDYSKYLDARAA[Nle]([1,2,3‑triazole‑5-AEEA-AEEA-γGlu-C18 diacid])DFVQWL[Met(O2)]DT-NH2
Regarding B8, in experiment [1], the “GLP1R EC50 human” value amounted to 0.45 nM. In experiment [2], the “GCGR EC50 human” value was determined as 0.25 nM.

B9: TP713 (peptide)
peptide: H[Aib]QGTFTSDYSKYLDARAAK([AEEA-AEEA-γGlu-C18 diacid])EFVQWL[Met(O2)][αMeD]
modifications: not fully specified (C-terminus); printed as HUQGTFTSDYSKYLDARAAK(PEG2PEG2γEC18-OH)EFVQWL2αMDT-NH2
For B9, the “GLP1R EC50 human” value in experiment [1] came to 0.71 nM. The “GCGR EC50 human” value in experiment [2] is 1.52 nM.

(Values after US20200270325A1 (Merck Sharp & Dohme, published 2020).)
